Measured values reported in paper PMC11927755.

Target: preformed microtubules (polymerized tubulin, paclitaxel-stabilised) (UniProt P02550)
Experiment: co-sedimentation; microtubule spin-down: 1 μM tau with paclitaxel-stabilised preformed microtubules in general tubulin buffer (80 mM PIPES pH 7.0, 1 mM MgCl2, 1 mM EGTA), 30 min at RT, through a sucrose cushion at 100,000 RCF for 40 min, pellet washed twice; tau (Tau5) and tubulin (5H1) in supernatant and pellet by Western blot; % tau in pellet

Chain of UniProt P02550 (P02550 whole entry, looked up): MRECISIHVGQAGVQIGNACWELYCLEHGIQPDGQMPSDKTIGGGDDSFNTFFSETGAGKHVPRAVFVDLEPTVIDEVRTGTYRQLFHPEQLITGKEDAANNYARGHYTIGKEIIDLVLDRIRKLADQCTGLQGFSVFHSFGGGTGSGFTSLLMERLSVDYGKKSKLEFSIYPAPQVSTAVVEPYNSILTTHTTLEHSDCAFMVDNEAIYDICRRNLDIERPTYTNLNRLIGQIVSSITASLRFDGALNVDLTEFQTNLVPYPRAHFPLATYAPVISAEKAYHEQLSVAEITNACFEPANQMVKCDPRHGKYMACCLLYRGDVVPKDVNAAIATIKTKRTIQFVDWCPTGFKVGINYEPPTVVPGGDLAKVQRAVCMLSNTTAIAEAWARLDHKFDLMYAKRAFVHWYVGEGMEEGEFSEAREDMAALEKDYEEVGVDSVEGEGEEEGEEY

percent decrease of tau in the pelleted microtubule fraction relative to unmodified hT39: 45%
Substance: O-GlcNAc modified hT39 (Glc hT39, 2N3R tau) (from UniProt P10636-5 1-410) (natural protein)
